Here are results for 6 substances from patent publication US5232912.

The experiment deals with bovine thrombin (bovine) (UniProt P00735).
“Suc-Tyr-Glu-Pro-Ile-Tiq-Glu-Glu-Ala-Cha-D-Glu-OH (peptide)” yielded a Fibrin Clot Inhibition of 0.63.
Under “Suc-Tyr-Glu-Pro-Ile-Pip-Glu-Glu-Ala-Cha-D-Glu-OH (peptide)” stands 0.88; under “Suc-Tyr-Glu-Azd-Ile-Pro-Glu-Glu-Ala-Cha-D-Glu-OH (peptide)”, 0.51.
Under “Suc-Tyr-Glu-Tiq-Ile-Pro-Glu-Glu-Ala-Cha-D-Glu-OH (peptide)” stands 0.82; under “Suc-Tyr-Glu-Pro-Ile-Azd-Glu-Glu-Ala-Cha-D-Glu-OH (peptide)”, 0.38.
“Suc-Tyr-Glu-Pip-Ile-Pro-Glu-Glu-Ala-Cha-D-Glu-OH (peptide)” returned a Fibrin Clot Inhibition of 1.9.
